In the Human Domainome abundance scans (Beltran et al. 2025):
± gives the uncertainty stated by the source.

B1: Dystrobrevin alpha, residues 235 to 294; numbered along this chain, Q9Y4J8 (parent)
chain: ENVFHPVECSYCHSESMMGFRYRCQQCHNYQLCQDCFWRGHAGGSHSNQHQMKEYTSWKS

Variants of: B1
Test: abundance fitness (aPCA) (normalised: wild type 0, dead -1); higher = more abundant; growth selection in yeast, the domain comes from the species named
Conditions: Homo sapiens

Abundance fitness: each site, then its substitutions
Q51: C -0.148 ± 0.082, A -0.066 ± 0.098, I 0.009 ± 0.078, H -0.319 ± 0.13, D 0.101 ± 0.06, F -0.536 ± 0.18, G -0.234 ± 0.074
G44: I -0.719 ± 0.25, M -0.384 ± 0.14, P -0.523 ± 0.16, V -0.234 ± 0.097, C -0.362 ± 0.11, Q -0.841 ± 0.26, Y -0.411 ± 0.19, D 0.077 ± 0.15, S -0.209 ± 0.096, H -0.818 ± 0.26, F -1.15 ± 0.21, L -0.621 ± 0.094, K -0.177 ± 0.099, N -0.285 ± 0.14, T -0.26 ± 0.099, E -0.303 ± 0.15, W -0.616 ± 0.19
N48: Q -0.084 ± 0.12, F -0.274 ± 0.08, A 0.007 ± 0.059, M -0.149 ± 0.058, K -0.248 ± 0.13, P 0.108 ± 0.095, V 0.037 ± 0.063, H -0.174 ± 0.083, E -0.167 ± 0.12, W -0.532 ± 0.092, Y -0.318 ± 0.16, G -0.045 ± 0.052, I -0.177 ± 0.1, L -0.22 ± 0.065, C -0.063 ± 0.087, T -0.042 ± 0.081, R -0.182 ± 0.055
F37: Q -0.003 ± 0.074, E -0.101 ± 0.074, C -0.473 ± 0.17, G -0.348 ± 0.063, S -0.278 ± 0.051, A -0.043 ± 0.082, Y -0.052 ± 0.17, T -0.439 ± 0.075, L -0.232 ± 0.079, M 0.081 ± 0.086, I -0.087 ± 0.31, V -0.045 ± 0.071, W -0.051 ± 0.093, R -0.098 ± 0.051, D -0.488 ± 0.28, H -0.092 ± 0.18, P -0.62 ± 0.13, N -0.401 ± 0.17
R39: H 0.092 ± 0.062, P -0.495 ± 0.058, V -0.202 ± 0.047, M -0.072 ± 0.047, A 0.142 ± 0.049, S 0.062 ± 0.039, C -0.071 ± 0.053, G 0.011 ± 0.044, W -0.282 ± 0.043, E 0.074 ± 0.048, F -0.34 ± 0.058, N 0.086 ± 0.063, L -0.08 ± 0.032, I -0.308 ± 0.071, Q 0.116 ± 0.056, T -0.107 ± 0.048, Y -0.099 ± 0.066, K 0.228 ± 0.05, D -0.083 ± 0.071
S45: Y -0.605 ± 0.2, R -0.159 ± 0.046, D 0.163 ± 0.07, P -0.043 ± 0.083, N -0.13 ± 0.13, K 0.031 ± 0.076, L -0.163 ± 0.083, T 0.098 ± 0.07, Q -0.121 ± 0.15, H -0.291 ± 0.14, W -0.287 ± 0.087, C 0.06 ± 0.068, E 0.065 ± 0.067, I -0.394 ± 0.14, M -0.269 ± 0.11, G 0.099 ± 0.045
A42: Q -0.071 ± 0.1, T -0.054 ± 0.065, E 0.081 ± 0.072, L -0.285 ± 0.06, G -0.026 ± 0.055, D -0.253 ± 0.14, W -0.29 ± 0.099, V 0.005 ± 0.062, H 0.05 ± 0.18, Y -0.381 ± 0.21, N -0.077 ± 0.11, P -0.421 ± 0.092, I -0.372 ± 0.22, K -0.224 ± 0.091, R -0.032 ± 0.055, M -0.04 ± 0.086
H50: N -0.493 ± 0.062, M -0.503 ± 0.058, L -0.622 ± 0.052, V -0.686 ± 0.049, Q -0.509 ± 0.058, A -0.543 ± 0.053, D -0.411 ± 0.055, E -0.516 ± 0.08, P -0.463 ± 0.052, G -0.493 ± 0.048, F -0.755 ± 0.084, Y -0.527 ± 0.076, W -0.624 ± 0.07, C -0.301 ± 0.067, K -0.438 ± 0.073, I -0.524 ± 0.064
W38: K 0.191 ± 0.13, D 0.288 ± 0.1, R 0.364 ± 0.054, F 0.099 ± 0.11, T 0.349 ± 0.077, L 0.167 ± 0.083, N 0.308 ± 0.15, E 0.287 ± 0.07, A 0.305 ± 0.074, H 0.014 ± 0.19, Y 0.214 ± 0.11, V 0.13 ± 0.1, C 0.215 ± 0.066, Q 0.228 ± 0.093, P -0.146 ± 0.082, M 0.37 ± 0.086, S 0.343 ± 0.059, I 0.318 ± 0.12
D35: R -0.089 ± 0.044, C -0.113 ± 0.12, Q -0.204 ± 0.1, A -0.093 ± 0.074, Y 0.011 ± 0.1, M -0.022 ± 0.094, W -0.33 ± 0.1, V -0.084 ± 0.081, P 0.025 ± 0.07, I -0.113 ± 0.11, N 0.069 ± 0.14, S -0.033 ± 0.061, H 0.001 ± 0.12, G -0.235 ± 0.17, F 0.197 ± 0.2
Q31: L -0.153 ± 0.069, T 0.083 ± 0.077, N -0.202 ± 0.2, S -0.007 ± 0.06, W 0.11 ± 0.12, Y -0.034 ± 0.1, V 0.098 ± 0.07, P -0.536 ± 0.11
